Results as given in US20100285583A1, “COMPOUNDS AND METHODS FOR INHIBITING PLATELET AGGREGATION” (priority 2009, published 2010).

Key:
[1] = system: Washed platelets; experiment: Platelet aggregation under flow assay (microfluidics channel); assay type: cell-based, human; settings: 10 μM, with sulfatide liposomes, shear rate 70 s^−1
Method: The microfluidic device consisted in a simple straight channel 500 μm wide, 50 μm deep and 3.62 cm long. A silicon master stamp was fabricated on a <100> silicon substrate following a previously described process (Ross et al. Ann. Rev. Med. 1987, 38:71-79). Flow was driven using a micro-syringe pump (Cole-Parmer) with a 1 mL syringe connected to the channel inlet by 30 cm of Cole-Parmer gauge 20 Teflon tubing. After priming the system with the sample, the pump was set to 0.05 mL/h (equivalent to an average velocity of 0.55 mm/sec in the channel), which is in the range of in vivo blood velocity (0.1-1.5 mm/sec (9)) and causes a shear rate of 70 sec−1. This flow rate was maintained for 1 min prior to the experiments. Platelets flowing through the channel were monitored using an inverted light microscope (DMI 6000B, Leica Microsystems) equipped with a digital camera (DFC420, Leica Microsystems).
Platelet aggregation is mediated by αIIbβ3 integrin interactions with fibrinogen and fibrin linking platelets together (Furie et al., J. Clin. Invest. 2005; 115 (12): 3355-3362; and Andrews et al., Thromb Res. 2004; 114:447-453). P-selectin links aggregated platelets together stabilizing clot formation (Merten 2001). Sulfatides stimulate increased levels of both αIIbβ3 integrin and P-selectin expression on platelets (Merten 2005). […]

[2] = system: platelet surface αIIbβ3 integrin; experiment: Flow cytometry, platelet surface αIIbβ3 integrin; assay type: cell-based, human; settings: ADP 30 μM, sulfatide liposomes 50 μg/mL
Method: Washed platelets (2.5×10^5 platelets/μL) were kept unactivated or either activated with ADP (30 μM) or TRAP (10 μM). Both unactivated and activated platelets were incubated for 10 min at 23° C. with liposomes (50 μg/mL) either without (liposomes control) or with sulfatides, and N-PTB constructs (1 μM). Reactions were fixed with 1% formalin and incubated with PE- labeled CD62p anti-P-selectin (BioLegend) or FITC-labeled PAC-1 anti-integrin receptor (BD Transduction) antibodies. Bound antibodies were quantified using a FacsAria flow cytometer.
Once present, P-selectin is able to interact with sulfatides which triggers an internal phosphorylation pathway thought to be mediated by p38 (FIG. 12A) (Merten 2005). This cascade results in further de-granulation and an increase in surface P-selectin (Merten 2005). To monitor the de-granulation of platelets, two activation markers were evaluated using fluorescent antibodies specific for P-selectin and the αIIbβ3 integrin. Marker surface expression was quantified using fluorescence-activated cell sorting (FACS) analysis, and measuring the median fluorescent signal of 10,000 platelets. The median signal was used as our reference to quantify the data set as median values are less affected by the wide range of platelet signals and is therefore more representative of the population. […]

B1: N-PTB: N-terminal phosphotyrosine binding domain (residues 1-241) of human Disabled-2 (Dab2), expressed as GST-fusion in E. coli (protein)
chain: MSNEVETSATNGQPDQQAAPKAPSKKEKKKGPEKTDEYLLARFKGDGVKYKAKLIGIDDVPDARGDKMSQDSMMKLKGMAARGRSQGQHKQRIWVNISLSGIKIIDEKTGVIEHEHPVNKISFIARDVTDNRAFGYVCGGEGQHQFFAIKTGQQAEPLVVDLKDLFQVIYNVKKKEEEKKKIEEASKAVENGSEALMILDDQTNKLKSGVDQMDLFGDMSTPPDLNSPTESKDILLVDLNS
- inhibition of sulfatide induced platelet aggregation under flow [1]: returned to the size of untreated platelets
- inhibition of sulfatide induced platelet aggregation under flow ([1]; listed as N-PTB^4M): limited inhibition of platelet aggregate size but not adhesion
- inhibition of sulfatide induced expression of αIIbβ3 integrin [2]: inhibition of sulfatide induced expression
- inhibition of sulfatide induced expression of αIIbβ3 integrin ([2]; listed as N-PTB^4M): no inhibition
